Source: patent US20250179200A1 (UNIVERSITY OF CHICAGO, published 2025)
Changes are numbered by the printed parent chain.

B1: GHR_TS40 Fab (Fab, V domains shown)
VH: EVQLVESGGGLVQPGGSLRLSCAASGFNVSYYYIHWVRQAPGKGLEWVASIYPSSGYTSYADSVKGRFTISADTSKNTAYLQMNSLRAEDTAVYYCARYYWPASYWSGYSALDYWGQGTLVTVSS
VL: DIQMTQSPSSLSASVGDRVTITCRASQSVSSAVAWYQQKPGKAPKLLIYSASSLYSGVPSRFSGSRSGTDFTLTISSLQPEDFATYYCQQYPWGLITFGQGTKVEIKR
B2: GHR_TS23 Fab (Fab, V domains shown)
VH: EVQLVESGGGLVQPGGSLRLSCAASGFNFYYSSIHWVRQAPGKGLEWVASIYSYSGSTSYADSVKGRFTISADTSKNTAYLQMNSLRAEDTAVYYCARQYWYYGGYFYYGIDYWGQGTLVTVSS
VL: B1 VL with P92W, W93S, G94T
notes: Fab from the cross-species phage display selection

How the values were obtained:
[1] = target: T1, Growth Hormone Receptor (GHR) immobilized on a high binding plate (UniProt P10912 19-264, limits assumed); assay: competition ELISA: Fab titrated on plate-bound GHR preincubated with 200 nM GH (the legend of 6A names B2036), anti-human Fab-HRP
T1 sequence (looked up): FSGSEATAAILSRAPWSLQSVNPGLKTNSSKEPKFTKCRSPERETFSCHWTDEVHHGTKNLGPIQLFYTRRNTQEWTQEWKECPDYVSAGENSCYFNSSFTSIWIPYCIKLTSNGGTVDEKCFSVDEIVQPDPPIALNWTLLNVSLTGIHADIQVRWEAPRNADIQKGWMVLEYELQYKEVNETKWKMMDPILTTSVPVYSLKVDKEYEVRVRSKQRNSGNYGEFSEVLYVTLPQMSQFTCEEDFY
Experimental: 200 nM of GHR was immobilized on a 96-well high binding plate (Geiner Bio) and blocked with 5% BSA overnight. […] The Fab binding to GHR was detected using HRP-conjugated anti-human (Fab)2 antibody (Jackson ImmunoResearch, 1:5000 dilution in PBST), and the signal was developed with TMB substrate.

[2] = target: T2, Human GHR-Fc-10x His (extracellular region of human growth hormone receptor fused to human Fc) (human, UniProt P10912 50-256); assay: SPR, GHR_Fc-10xHis on Ni-NTA chip, Fab in 2-fold dilutions from 50 nM, 1:1 fit
T2 construct: Captured by its 10x His-tag on a Ni-NTA sensor chip for SPR; not shown: human Fc domain of vector pAB1200 with its linker; 10x His-tag replacing the AviTag
T2 sequence (looked up): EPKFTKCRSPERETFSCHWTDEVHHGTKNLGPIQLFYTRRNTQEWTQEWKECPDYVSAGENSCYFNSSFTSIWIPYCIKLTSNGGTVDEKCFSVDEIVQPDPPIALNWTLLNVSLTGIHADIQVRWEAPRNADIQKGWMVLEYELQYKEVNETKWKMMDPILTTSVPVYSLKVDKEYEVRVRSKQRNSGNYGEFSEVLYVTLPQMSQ
Experimental: (§1) Surface plasmon resonance (SPR) measurements were conducted in a MASS-1 (Bruker) instrument. The target GHR-Fc (50 nM) with a 10× His-tag was captured in a Ni-NTA sensor chip. […] Flow rate was 30 ul/min and temperature 20° C. Sensograms were corrected through double referencing and fitting was done with a 1:1 binding model using the Sierra Analyzer (Bruker). For epitope binning experiments, the first FAB was injected at saturating concentrations (200 nM), followed by injection a second FAB in equal molar mixture with the first FAB, and the response unit (RU) was recorded.
(§2) Target GHR_Fc (from different species) were immobilized via a 10× His-tag to a Ni-NTA sensor chip. […] Sensograms were corrected through double referencing and 1:1 binding model fit was done using Sierra Analyzer (Bruker). To reveal different epitopes on GHR, the epitope binning experiment was performed.

[3] = target: T3, Rabbit GHR_Fc with 10x His-tag (rabbit, UniProt P19941 19-264, limits assumed); assay: as above
T3 construct: not shown: Fc domain and 10x His-tag
T3 sequence (looked up): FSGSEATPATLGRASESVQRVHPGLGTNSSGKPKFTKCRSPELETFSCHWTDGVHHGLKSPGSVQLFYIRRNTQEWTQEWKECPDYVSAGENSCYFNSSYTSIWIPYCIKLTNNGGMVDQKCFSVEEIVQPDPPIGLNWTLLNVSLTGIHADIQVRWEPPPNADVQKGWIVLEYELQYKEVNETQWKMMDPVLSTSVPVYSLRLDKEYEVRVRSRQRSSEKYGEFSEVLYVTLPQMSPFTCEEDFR
Experimental: as §1, §2

[4] = target: T4, Pig GHR_Fc with 10x His-tag (pig, UniProt P19756 19-264, limits assumed); assay: as above
T4 construct: not shown: Fc domain and 10x His-tag
T4 sequence (looked up): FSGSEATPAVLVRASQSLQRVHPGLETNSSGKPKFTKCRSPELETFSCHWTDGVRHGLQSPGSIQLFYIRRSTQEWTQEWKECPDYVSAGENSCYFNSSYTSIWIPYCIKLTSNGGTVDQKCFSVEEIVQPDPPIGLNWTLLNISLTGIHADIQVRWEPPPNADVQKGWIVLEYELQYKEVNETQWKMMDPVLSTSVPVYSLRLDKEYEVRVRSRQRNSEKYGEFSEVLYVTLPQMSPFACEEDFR
Experimental: as §1, §2

[5] = target: T5, Cyno GHR_Fc with 10x His-tag (Cyno, UniProt A0A2K5WH01 19-262); assay: as above
T5 construct: not shown: Fc domain and 10x His-tag
T5 sequence: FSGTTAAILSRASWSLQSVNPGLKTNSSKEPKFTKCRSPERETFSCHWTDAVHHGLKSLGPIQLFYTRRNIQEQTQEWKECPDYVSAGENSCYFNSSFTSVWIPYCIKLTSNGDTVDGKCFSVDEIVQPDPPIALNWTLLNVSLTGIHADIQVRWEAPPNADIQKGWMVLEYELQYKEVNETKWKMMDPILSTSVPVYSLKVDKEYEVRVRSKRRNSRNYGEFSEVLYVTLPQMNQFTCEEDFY
Experimental: as §1, §2

[6] = target: T6, Rat GHR_Fc with 10x His-tag (rat, UniProt P16310 19-265, limits assumed); assay: as above
T6 construct: not shown: Fc domain and 10x His-tag
T6 sequence (looked up): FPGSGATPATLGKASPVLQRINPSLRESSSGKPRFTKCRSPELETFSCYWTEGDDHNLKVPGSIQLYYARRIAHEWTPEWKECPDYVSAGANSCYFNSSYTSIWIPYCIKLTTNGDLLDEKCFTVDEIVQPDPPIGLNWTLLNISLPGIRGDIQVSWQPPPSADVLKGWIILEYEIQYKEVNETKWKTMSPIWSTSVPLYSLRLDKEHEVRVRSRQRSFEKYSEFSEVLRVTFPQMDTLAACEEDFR
Experimental: as §1, §2

[7] = target: T7, Murine GHR_Fc with 10x His-tag (murine, UniProt P16882 25-273, limits assumed); assay: as above
T7 construct: not shown: Fc domain and 10x His-tag
T7 sequence (looked up): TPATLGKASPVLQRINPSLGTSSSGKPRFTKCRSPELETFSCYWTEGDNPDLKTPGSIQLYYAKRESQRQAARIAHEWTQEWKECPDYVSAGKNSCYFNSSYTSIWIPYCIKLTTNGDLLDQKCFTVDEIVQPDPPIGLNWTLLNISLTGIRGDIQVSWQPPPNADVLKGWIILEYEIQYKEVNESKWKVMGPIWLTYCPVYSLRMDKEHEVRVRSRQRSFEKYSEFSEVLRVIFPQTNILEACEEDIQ
Experimental: as §1, §2

Binder | EC50 [1] | Kd [2] | koff [2] | kon [2] | Kd [3] | koff [3] | kon [3] | Kd [4] | koff [4] | kon [4] | Kd [5] | koff [5] | kon [5] | Kd [6] | koff [6] | kon [6] | Kd [7] | koff [7] | kon [7]
B1 | 132 nM |  |  |  |  |  |  |  |  |  |  |  |  |  |  |  |  |  | 
B2 |  | 0.2 nM | 0.00017 s⁻¹ | 830000 M⁻¹ s⁻¹ | 2.5 nM | 0.0014 s⁻¹ | 560000 M⁻¹ s⁻¹ | 1.8 nM | 0.0012 s⁻¹ | 670000 M⁻¹ s⁻¹ | 1.3 nM | 0.00038 s⁻¹ | 300000 M⁻¹ s⁻¹ | 8.2 nM | 0.0031 s⁻¹ | 370000 M⁻¹ s⁻¹ | 7.8 nM | 0.0051 s⁻¹ | 660000 M⁻¹ s⁻¹
